Source: PMC4393111
Values belong to the substance of their own block, whether it stands above or below them.

Assays:
[1] = biological target: GFP-Dzip1 (full-length mouse Dzip1) (mouse) (UniProt Q8BMD2); assay: co-IP; both partners co-expressed with tags in HEK 293T cells (some in G0 phase; some treated with the GSK3 inhibitors BIO or CHIR99021, the CK1 inhibitor D4476 or the CK2 inhibitor CX4945); IP of the GFP-, CFP/YFP-tagged partner; IP buffer 0.1% NP-40, 50 mM HEPES pH 7.00, 125 mM NaCl, 4°C
GFP-Rab8^T22N = GFP-Rab8^T22N (UniProt P61006); assay: as above
[2] = biological target: CFP-RBD-YFP (Rab8-binding domain of Rabin8 between CFP and YFP) (human)
[3] = biological target: CFP-RBD-YFP (Rab8-binding domain of Rabin8 between CFP and YFP) (human); remark: listed apart in the source

UniProt P61006, sequence (P61006 whole entry T22N, the tested form may be a part): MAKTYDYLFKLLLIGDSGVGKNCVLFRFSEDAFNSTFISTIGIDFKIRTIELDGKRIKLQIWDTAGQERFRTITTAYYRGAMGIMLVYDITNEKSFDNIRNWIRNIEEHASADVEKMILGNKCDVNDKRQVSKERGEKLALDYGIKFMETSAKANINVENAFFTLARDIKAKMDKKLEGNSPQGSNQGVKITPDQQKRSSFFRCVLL

fold co-immunoprecipitated against Rab8^Q67L [1]: 3.5 fold
Substance: Flag-Rab8^T22N (from UniProt P61006 1-207) (natural protein)

fold co-immunoprecipitated against wild-type Rab8 (GFP-Rab8^T22N): 5 fold
Substance: Myc-Dzip1 (from UniProt Q8BMD2 1-852) (natural protein)

FE^CFP after YFP photo-bleaching (AB-FRET of the reporter CFP-RBD-YFP) around the cilium base, G0-phase NIH 3T3 RNAi control cells [2]: 9.3% | FE^CFP after YFP photo-bleaching (AB-FRET of the reporter CFP-RBD-YFP) at the basal body, G0-phase NIH 3T3 cells treated with the GSK3 inhibitor BIO [3]: 3.3% | FE^CFP after YFP photo-bleaching (AB-FRET of the reporter CFP-RBD-YFP) at the basal body, G0-phase NIH 3T3 cells treated with the GSK3 inhibitor CHIR99021 [3]: 2.6% | FE^CFP after YFP photo-bleaching (AB-FRET of the reporter CFP-RBD-YFP) at the basal body, G0-phase NIH 3T3 cells, untreated control [3]: 4.8%
Substance: endogenous Rab8 of NIH 3T3 cells (from UniProt P55258 1-207) (natural protein)
